US20140087995A1 (published 2014)
Numbered stars: 1 amine (or outer) side, 2 acyl side, 3 side chain; on linkers, the order of the positions; unused ones are H or OH. Bridge positions count the residues as written; N and C are the ends. Side chains are listed from the residue outwards. Ends that are not written are not given here. * marks the point of attachment. C20 diacid = O=C(O)CCCCCCCCCCCCCCCCCCC(=O)*; γGlu = O=C(O)[C@H](CCC(=O)[*:2])N[*:1]

T1: rat calcitonin receptor (rat, UniProt P32214 25-516)
T1 construct: whole, on cells; Used as membranes prepared from the transfected cells; also called rCTR; rCT
T1 sequence (looked up): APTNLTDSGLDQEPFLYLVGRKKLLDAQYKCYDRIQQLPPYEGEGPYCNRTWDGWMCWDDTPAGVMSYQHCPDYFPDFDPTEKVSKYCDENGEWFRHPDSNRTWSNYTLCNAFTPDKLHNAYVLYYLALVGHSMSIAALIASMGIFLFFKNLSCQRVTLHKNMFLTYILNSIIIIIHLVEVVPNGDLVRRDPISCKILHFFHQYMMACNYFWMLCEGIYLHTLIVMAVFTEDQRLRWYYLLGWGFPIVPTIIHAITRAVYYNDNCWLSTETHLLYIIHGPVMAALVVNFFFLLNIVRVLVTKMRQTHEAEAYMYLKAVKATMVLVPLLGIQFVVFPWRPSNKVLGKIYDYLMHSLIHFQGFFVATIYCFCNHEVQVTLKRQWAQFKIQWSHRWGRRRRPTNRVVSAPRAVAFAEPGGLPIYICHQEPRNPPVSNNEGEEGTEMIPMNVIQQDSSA

T2: human calcitonin receptor (human, UniProt P30988 25-474)
T2 construct: whole, on cells; Used as membranes prepared from the transfected cells; also called hCTR; hCT
T2 sequence (looked up): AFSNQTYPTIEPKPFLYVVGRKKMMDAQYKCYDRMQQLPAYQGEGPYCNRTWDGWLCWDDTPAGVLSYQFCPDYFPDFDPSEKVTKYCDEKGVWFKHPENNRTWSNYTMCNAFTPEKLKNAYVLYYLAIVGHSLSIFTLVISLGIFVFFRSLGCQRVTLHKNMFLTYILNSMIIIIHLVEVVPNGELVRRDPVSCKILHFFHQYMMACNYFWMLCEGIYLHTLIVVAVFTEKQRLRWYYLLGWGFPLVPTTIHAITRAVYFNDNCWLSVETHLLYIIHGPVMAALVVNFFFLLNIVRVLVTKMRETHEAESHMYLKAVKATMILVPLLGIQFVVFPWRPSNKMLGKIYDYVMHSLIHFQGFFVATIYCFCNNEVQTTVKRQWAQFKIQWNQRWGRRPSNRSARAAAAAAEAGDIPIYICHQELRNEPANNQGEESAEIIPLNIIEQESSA

B1: N^ε1-[(4S)-4-carboxy-4-(19-carboxynonadecanoylamino)butanoyl]-[Arg14,Arg17,Pro21,Pro27,Pro34]-h-amylin (peptide)
peptide: K([γGlu-C20 diacid])CNTATCATQRLARFLRHSSPNFGAIPSSTNVGPNTY-NH2
modifications: disulfide 2-7; N-terminus assumed
SMILES: CC[C@H](C)[C@H](NC(=O)[C@H](C)NC(=O)CNC(=O)[C@H](Cc1ccccc1)NC(=O)[C@H](CC(N)=O)NC(=O)[C@@H]1CCCN1C(=O)[C@H](CO)NC(=O)[C@H](CO)NC(=O)[C@H](Cc1c[nH]cn1)NC(=O)[C@H](CCCNC(=N)N)NC(=O)[C@H](CC(C)C)NC(=O)[C@H](Cc1ccccc1)NC(=O)[C@H](CCCNC(=N)N)NC(=O)[C@H](C)NC(=O)[C@H](CC(C)C)NC(=O)[C@H](CCCNC(=N)N)NC(=O)[C@H](CCC(N)=O)NC(=O)[C@@H](NC(=O)[C@H](C)NC(=O)[C@@H]1CSSC[C@H](NC(=O)[C@@H](N)CCCCNC(=O)CC[C@H](NC(=O)CCCCCCCCCCCCCCCCCCC(=O)O)C(=O)O)C(=O)N[C@@H](CC(N)=O)C(=O)N[C@@H]([C@@H](C)O)C(=O)N[C@@H](C)C(=O)N[C@@H]([C@@H](C)O)C(=O)N1)[C@@H](C)O)C(=O)N1CCC[C@H]1C(=O)N[C@@H](CO)C(=O)N[C@@H](CO)C(=O)N[C@H](C(=O)N[C@@H](CC(N)=O)C(=O)N[C@H](C(=O)NCC(=O)N1CCC[C@H]1C(=O)N[C@@H](CC(N)=O)C(=O)N[C@H](C(=O)N[C@@H](Cc1ccc(O)cc1)C(N)=O)[C@@H](C)O)C(C)C)[C@@H](C)O
notes: Analogue of human amylin; disulfide and C-terminal amide as told for h-amylin; also called compound 65
B2: N^ε1-[(4S)-4-carboxy-4-(19-carboxynonadecanoylamino)butanoyl]-[Arg14,Arg17,Pro21,Pro27]-h-amylin (peptide)
peptide: K([γGlu-C20 diacid])CNTATCATQRLARFLRHSSPNFGAIPSSTNVGSNTY-NH2
modifications: disulfide 2-7; N-terminus assumed
SMILES: CC[C@H](C)[C@H](NC(=O)[C@H](C)NC(=O)CNC(=O)[C@H](Cc1ccccc1)NC(=O)[C@H](CC(N)=O)NC(=O)[C@@H]1CCCN1C(=O)[C@H](CO)NC(=O)[C@H](CO)NC(=O)[C@H](Cc1c[nH]cn1)NC(=O)[C@H](CCCNC(=N)N)NC(=O)[C@H](CC(C)C)NC(=O)[C@H](Cc1ccccc1)NC(=O)[C@H](CCCNC(=N)N)NC(=O)[C@H](C)NC(=O)[C@H](CC(C)C)NC(=O)[C@H](CCCNC(=N)N)NC(=O)[C@H](CCC(N)=O)NC(=O)[C@@H](NC(=O)[C@H](C)NC(=O)[C@@H]1CSSC[C@H](NC(=O)[C@@H](N)CCCCNC(=O)CC[C@H](NC(=O)CCCCCCCCCCCCCCCCCCC(=O)O)C(=O)O)C(=O)N[C@@H](CC(N)=O)C(=O)N[C@@H]([C@@H](C)O)C(=O)N[C@@H](C)C(=O)N[C@@H]([C@@H](C)O)C(=O)N1)[C@@H](C)O)C(=O)N1CCC[C@H]1C(=O)N[C@@H](CO)C(=O)N[C@@H](CO)C(=O)N[C@H](C(=O)N[C@@H](CC(N)=O)C(=O)N[C@H](C(=O)NCC(=O)N[C@@H](CO)C(=O)N[C@@H](CC(N)=O)C(=O)N[C@H](C(=O)N[C@@H](Cc1ccc(O)cc1)C(N)=O)[C@@H](C)O)C(C)C)[C@@H](C)O
notes: Analogue of human amylin; disulfide and C-terminal amide as told for h-amylin; also called compound 83
B3: N^ε1-[(4S)-4-carboxy-4-(19-carboxynonadecanoylamino)butanoyl]-[Arg17,Pro21,Pro27,Arg34]-h-amylin (peptide)
peptide: K([γGlu-C20 diacid])CNTATCATQRLANFLRHSSPNFGAIPSSTNVGRNTY-NH2
modifications: disulfide 2-7; N-terminus assumed
SMILES: CC[C@H](C)[C@H](NC(=O)[C@H](C)NC(=O)CNC(=O)[C@H](Cc1ccccc1)NC(=O)[C@H](CC(N)=O)NC(=O)[C@@H]1CCCN1C(=O)[C@H](CO)NC(=O)[C@H](CO)NC(=O)[C@H](Cc1c[nH]cn1)NC(=O)[C@H](CCCNC(=N)N)NC(=O)[C@H](CC(C)C)NC(=O)[C@H](Cc1ccccc1)NC(=O)[C@H](CC(N)=O)NC(=O)[C@H](C)NC(=O)[C@H](CC(C)C)NC(=O)[C@H](CCCNC(=N)N)NC(=O)[C@H](CCC(N)=O)NC(=O)[C@@H](NC(=O)[C@H](C)NC(=O)[C@@H]1CSSC[C@H](NC(=O)[C@@H](N)CCCCNC(=O)CC[C@H](NC(=O)CCCCCCCCCCCCCCCCCCC(=O)O)C(=O)O)C(=O)N[C@@H](CC(N)=O)C(=O)N[C@@H]([C@@H](C)O)C(=O)N[C@@H](C)C(=O)N[C@@H]([C@@H](C)O)C(=O)N1)[C@@H](C)O)C(=O)N1CCC[C@H]1C(=O)N[C@@H](CO)C(=O)N[C@@H](CO)C(=O)N[C@H](C(=O)N[C@@H](CC(N)=O)C(=O)N[C@H](C(=O)NCC(=O)N[C@@H](CCCNC(=N)N)C(=O)N[C@@H](CC(N)=O)C(=O)N[C@H](C(=O)N[C@@H](Cc1ccc(O)cc1)C(N)=O)[C@@H](C)O)C(C)C)[C@@H](C)O
notes: Analogue of human amylin; disulfide and C-terminal amide as told for h-amylin; also called compound 79
B4: N^ε1-[(4S)-4-carboxy-4-(19-carboxynonadecanoylamino)butanoyl]-[Arg17,Pro21,Pro27,His34]-h-amylin (peptide)
peptide: K([γGlu-C20 diacid])CNTATCATQRLANFLRHSSPNFGAIPSSTNVGHNTY-NH2
modifications: disulfide 2-7; N-terminus assumed
SMILES: CC[C@H](C)[C@H](NC(=O)[C@H](C)NC(=O)CNC(=O)[C@H](Cc1ccccc1)NC(=O)[C@H](CC(N)=O)NC(=O)[C@@H]1CCCN1C(=O)[C@H](CO)NC(=O)[C@H](CO)NC(=O)[C@H](Cc1c[nH]cn1)NC(=O)[C@H](CCCNC(=N)N)NC(=O)[C@H](CC(C)C)NC(=O)[C@H](Cc1ccccc1)NC(=O)[C@H](CC(N)=O)NC(=O)[C@H](C)NC(=O)[C@H](CC(C)C)NC(=O)[C@H](CCCNC(=N)N)NC(=O)[C@H](CCC(N)=O)NC(=O)[C@@H](NC(=O)[C@H](C)NC(=O)[C@@H]1CSSC[C@H](NC(=O)[C@@H](N)CCCCNC(=O)CC[C@H](NC(=O)CCCCCCCCCCCCCCCCCCC(=O)O)C(=O)O)C(=O)N[C@@H](CC(N)=O)C(=O)N[C@@H]([C@@H](C)O)C(=O)N[C@@H](C)C(=O)N[C@@H]([C@@H](C)O)C(=O)N1)[C@@H](C)O)C(=O)N1CCC[C@H]1C(=O)N[C@@H](CO)C(=O)N[C@@H](CO)C(=O)N[C@H](C(=O)N[C@@H](CC(N)=O)C(=O)N[C@H](C(=O)NCC(=O)N[C@@H](Cc1c[nH]cn1)C(=O)N[C@@H](CC(N)=O)C(=O)N[C@H](C(=O)N[C@@H](Cc1ccc(O)cc1)C(N)=O)[C@@H](C)O)C(C)C)[C@@H](C)O
notes: Analogue of human amylin; disulfide and C-terminal amide as told for h-amylin; also called compound 77
B5: N^ε1-[(4S)-4-carboxy-4-(19-carboxynonadecanoylamino)butanoyl]-[His14,Arg17,Pro21,Pro27,Arg34]-h-amylin (peptide)
peptide: K([γGlu-C20 diacid])CNTATCATQRLAHFLRHSSPNFGAIPSSTNVGRNTY-NH2
modifications: disulfide 2-7; N-terminus assumed
SMILES: CC[C@H](C)[C@H](NC(=O)[C@H](C)NC(=O)CNC(=O)[C@H](Cc1ccccc1)NC(=O)[C@H](CC(N)=O)NC(=O)[C@@H]1CCCN1C(=O)[C@H](CO)NC(=O)[C@H](CO)NC(=O)[C@H](Cc1c[nH]cn1)NC(=O)[C@H](CCCNC(=N)N)NC(=O)[C@H](CC(C)C)NC(=O)[C@H](Cc1ccccc1)NC(=O)[C@H](Cc1c[nH]cn1)NC(=O)[C@H](C)NC(=O)[C@H](CC(C)C)NC(=O)[C@H](CCCNC(=N)N)NC(=O)[C@H](CCC(N)=O)NC(=O)[C@@H](NC(=O)[C@H](C)NC(=O)[C@@H]1CSSC[C@H](NC(=O)[C@@H](N)CCCCNC(=O)CC[C@H](NC(=O)CCCCCCCCCCCCCCCCCCC(=O)O)C(=O)O)C(=O)N[C@@H](CC(N)=O)C(=O)N[C@@H]([C@@H](C)O)C(=O)N[C@@H](C)C(=O)N[C@@H]([C@@H](C)O)C(=O)N1)[C@@H](C)O)C(=O)N1CCC[C@H]1C(=O)N[C@@H](CO)C(=O)N[C@@H](CO)C(=O)N[C@H](C(=O)N[C@@H](CC(N)=O)C(=O)N[C@H](C(=O)NCC(=O)N[C@@H](CCCNC(=N)N)C(=O)N[C@@H](CC(N)=O)C(=O)N[C@H](C(=O)N[C@@H](Cc1ccc(O)cc1)C(N)=O)[C@@H](C)O)C(C)C)[C@@H](C)O
notes: Analogue of human amylin; disulfide and C-terminal amide as told for h-amylin; also called compound 85

biological target: T1, rat calcitonin receptor; assay: SPA competition with 125I-calcitonin, membranes with rat calcitonin receptor (Assay VIII)

| Binder | IC50 [nM] |
| --- | --- |
| B1 | 108 |
| B2 | 140 |
| B3 | 35.5 |
| B4 | 205 |
| B5 | 146 |

biological target: T2, human calcitonin receptor; assay: ratio of binding IC50 at human calcitonin receptor to IC50 at human amylin receptor (reference)
Outline: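 Scintillation proximity competition binding on cell membranes at 35 ng/μL with SPA beads, in 50 mM Hepes pH 7.4, 1 mM CaCl2, 5 mM MgCl₂, 0.1% OA, 0.02% Tween20. Incubated 120 min at 25° C with shaking. IC₅₀ from one-site competition fit.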

| Binder | Ratio hCT/hAmylin binding |
| --- | --- |
| B1 | 82.4 |
| B2 | 146 |
| B3 | 46.1 |
| B4 | 118 |
| B5 | 91.8 |

biological target: T1, rat calcitonin receptor; assay: ratio of binding IC50 at rat calcitonin receptor to IC50 at rat amylin receptor (reference)

| Binder | Ratio rCT/rAmylin binding |
| --- | --- |
| B1 | 93.2 |
| B2 | 49.7 |
| B3 | 21.5 |
| B4 | 137 |
| B5 | 46.5 |
